For assay [1], the target named is T1, human Nectin-4 (human, UniProt Q96NY8 32-510).
T1 construct: whole, on cells; Cell-surface target of the FACS, endocytosis and proliferation assays (CHO-huNectin4 S8 cells, BT474 cells); the assay field says which cells; also called huNectin4; PVRL4
T1 sequence (looked up): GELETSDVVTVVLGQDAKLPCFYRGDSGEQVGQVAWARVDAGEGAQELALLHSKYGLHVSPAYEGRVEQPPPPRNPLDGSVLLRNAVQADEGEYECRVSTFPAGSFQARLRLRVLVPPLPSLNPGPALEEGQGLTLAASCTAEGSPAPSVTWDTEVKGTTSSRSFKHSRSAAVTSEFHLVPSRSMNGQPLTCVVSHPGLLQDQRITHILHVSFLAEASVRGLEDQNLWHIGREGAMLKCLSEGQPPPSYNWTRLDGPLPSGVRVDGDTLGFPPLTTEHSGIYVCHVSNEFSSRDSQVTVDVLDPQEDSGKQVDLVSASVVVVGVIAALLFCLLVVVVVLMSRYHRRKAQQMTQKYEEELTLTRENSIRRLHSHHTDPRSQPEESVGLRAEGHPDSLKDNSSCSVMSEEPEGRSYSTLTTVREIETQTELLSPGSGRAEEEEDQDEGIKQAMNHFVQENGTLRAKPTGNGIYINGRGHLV
Kind of assay: FACS on BT474 cells. As to the method: (§1) The solutions of different concentrations were added to 384-well plates, 10 µl per well.
(§2) BT474 cells (breast cancer cells) expressing Nectin-4 on the cell surface were collected by centrifugation at 100 g at room temperature for 5 minutes, and then the cells were washed with PBS containing 0.5% BSA once and were centrifuged at 100 g at room temperature for 5 minutes. […] After incubation at 4° C. for 1 hour, fluorescently labeled goat anti-human IgG secondary antibody was added. After continued incubation at 4° C. for 1 hour, mean fluorescence readings of the cell populations were analyzed by a flow cytometer.

Assay [2] has as its target T1, human Nectin-4. Kind of assay: cell-based or functional assay.
Assay [3] concerns the target T1, human Nectin-4. Kind of assay: cell-based or functional assay. This is another data set of the same source.
The target of assay [4] is T1, human Nectin-4. Kind of assay: FACS on BT474 cells. As to the method:
as §1, §2
This is another data set of the same source.

Assay [5] addresses T2, murine Nectin4 (NP_082169) (murine, UniProt Q8R007 31-508).
T2 construct: whole, on cells; also called muNectin4
T2 sequence (looked up): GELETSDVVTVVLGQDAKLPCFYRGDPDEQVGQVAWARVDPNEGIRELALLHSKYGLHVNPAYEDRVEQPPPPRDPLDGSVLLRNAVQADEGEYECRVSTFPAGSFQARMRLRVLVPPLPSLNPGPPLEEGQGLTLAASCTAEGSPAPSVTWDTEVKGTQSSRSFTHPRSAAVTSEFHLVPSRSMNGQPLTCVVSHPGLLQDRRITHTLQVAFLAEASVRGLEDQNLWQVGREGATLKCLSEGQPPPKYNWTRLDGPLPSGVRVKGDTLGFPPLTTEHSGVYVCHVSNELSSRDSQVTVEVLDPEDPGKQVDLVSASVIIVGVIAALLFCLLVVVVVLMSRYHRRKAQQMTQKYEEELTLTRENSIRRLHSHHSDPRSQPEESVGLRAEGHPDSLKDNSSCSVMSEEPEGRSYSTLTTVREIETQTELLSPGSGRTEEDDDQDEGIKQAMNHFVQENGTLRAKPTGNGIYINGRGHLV
Kind of assay: FACS on HEK-muNectin4 cells.

A further assay has as its target T3, Cyno Nectin4 (Cyno, UniProt Q96NY8 32-510 (human entry)).
T3 construct: Expressed on HEK293 cells (HEK-cynoNectin4)
T3 chain: T1 sequence (looked up) with V39A, I230V, A437T
Kind of assay: FACS on HEK-cynoNectin4 cells.

Assay [6] has as its target T1, human Nectin-4. Kind of assay: FACS on CHO-huNectin4 S8 cells.
Another assay concerns the target T4, His-tagged human NECTIN4 (human, UniProt Q96NY8 32-349).
T4 construct: Antigen of the BIAcore assay; also called antigen; recombinant NECTIN4 protein; not shown: His tag
T4 sequence: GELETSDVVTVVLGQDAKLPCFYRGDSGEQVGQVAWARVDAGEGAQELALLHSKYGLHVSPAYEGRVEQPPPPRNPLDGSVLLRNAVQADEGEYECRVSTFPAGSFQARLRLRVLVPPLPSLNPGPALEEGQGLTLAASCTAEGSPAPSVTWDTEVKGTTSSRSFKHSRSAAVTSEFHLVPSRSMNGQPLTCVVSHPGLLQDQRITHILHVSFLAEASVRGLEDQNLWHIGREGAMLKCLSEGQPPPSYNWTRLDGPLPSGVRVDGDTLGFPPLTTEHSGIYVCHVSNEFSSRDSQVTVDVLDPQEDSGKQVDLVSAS
Kind of assay: SPR (BIAcore S200), antigen on CAP chip, antibody as analyte, 1:1 fit. As to the method:
Interactions between the antibodies and the antigen were measured using a BIAcore instrument S200 from GE. Referring to the instructions provided in Biotin Capture Kit from GE Healthcare, the analytical channel and the control sample channel on CAP sensor chip were first coupled with antigen i.e. His-tagged human NECTIN4, then samples containing antibodies (diluted 3-fold from an initial concentration of 20 nM respectively and solutions of each antibody of 8 concentrations were obtained totally, and the concentration 0.741 nM was set to be repeated) were allowed to flow through both the analytical channel and the sample channel, and the photoreactions upon antibody-antigen binding were measured. Association constant Kon and dissociation constant Koff and affinity constant KD of each antibody were finally obtained by instrument software fitting (1:1 binding mode) analysis.

The target in assay [7] is T5, human Nectin-4(C-6His), Novoprotein Cat# CJ19 (human, UniProt Q96NY8 32-349).
T5 construct: Bought protein; also called recombinant human Nectin4 protein; antigen Nectin-4
T5 sequence: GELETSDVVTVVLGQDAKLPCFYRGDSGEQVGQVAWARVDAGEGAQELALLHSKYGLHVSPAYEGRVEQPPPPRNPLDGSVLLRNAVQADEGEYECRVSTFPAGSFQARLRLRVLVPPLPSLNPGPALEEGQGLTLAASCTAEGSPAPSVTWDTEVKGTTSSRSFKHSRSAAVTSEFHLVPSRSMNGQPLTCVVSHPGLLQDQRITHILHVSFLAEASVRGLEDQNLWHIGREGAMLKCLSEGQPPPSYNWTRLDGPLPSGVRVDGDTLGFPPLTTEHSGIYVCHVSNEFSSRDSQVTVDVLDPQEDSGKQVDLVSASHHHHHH
Kind of assay: ELISA, plate coated with 1 µg/ml human Nectin-4(C-6His), HRP-labelled secondary antibody, absorbance at 450 nm. The protocol:
(§3) Plates were coated with 1 µg/ml of the antigens and incubated at 4° C. overnight; next, antibodies serially diluted were added into the plates. Finally, the HRP-labeled secondary antibody was added, and absorbance at 450 nm was detected.

Assay [8] has as its target T6, human Nectin-1(C-6His), Novoprotein Cat# C492 (human, UniProt Q15223 31-334, limits assumed).
T6 sequence: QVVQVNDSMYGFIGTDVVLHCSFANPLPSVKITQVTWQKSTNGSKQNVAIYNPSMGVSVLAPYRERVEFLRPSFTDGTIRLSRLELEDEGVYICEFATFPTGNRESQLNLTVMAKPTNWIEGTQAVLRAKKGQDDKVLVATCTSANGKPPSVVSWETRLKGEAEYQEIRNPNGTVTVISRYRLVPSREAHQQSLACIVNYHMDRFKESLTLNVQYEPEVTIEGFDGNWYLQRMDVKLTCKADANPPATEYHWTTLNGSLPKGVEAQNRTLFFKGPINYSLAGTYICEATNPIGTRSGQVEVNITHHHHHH
Kind of assay: ELISA, plate coated with 1 µg/ml human Nectin-1(C-6His), absorbance at 450 nm. The text names only a goat anti-rabbit HRP secondary antibody. The protocol: as §3

Assay [9] addresses T7, human Nectin-2(C-6His), Novoprotein Cat# C440 (human, UniProt Q92692 32-360, limits assumed).
T7 sequence: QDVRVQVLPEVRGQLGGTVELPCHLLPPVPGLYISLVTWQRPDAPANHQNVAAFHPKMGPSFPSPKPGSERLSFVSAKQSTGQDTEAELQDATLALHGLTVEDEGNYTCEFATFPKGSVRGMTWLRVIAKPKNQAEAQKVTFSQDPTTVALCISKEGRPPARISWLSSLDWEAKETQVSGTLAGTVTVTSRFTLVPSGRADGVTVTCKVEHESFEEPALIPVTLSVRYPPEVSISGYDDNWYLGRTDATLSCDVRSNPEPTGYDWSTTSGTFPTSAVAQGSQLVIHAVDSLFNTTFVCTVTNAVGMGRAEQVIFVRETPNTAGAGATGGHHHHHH
Kind of assay: ELISA, plate coated with 1 µg/ml human Nectin-2(C-6His), absorbance at 450 nm. The text names only a goat anti-rabbit HRP secondary antibody. The protocol: as §3

Residue numbers refer to the chain shown, from its start.

B1: murine antibody 30J3 (antibody, V domains shown)
VH: EVQLQQSGPDLVKPGASVKISCKASGYSFTDYYMHWVKQSRGKGLEWIGRVNPNNGNTLYNQKFRGKAILTVDKSSSTAYMELRSLTSDDSAVYYCAREDRYAFAYWGQGTLVTVSA
VL: DIVLTQSPASLAVSLGQRATISCRASQSVSTSSYTYMHWYQQKPGQPPKLLIKYASNLESGVPARFIGSGSGTDFTLNIHPVEEEDTATYYCQHTWEIPYTFGGGTKLEIK
notes: Murine monoclonal antibody from hybridoma; also called mIgG 30J3
With B1, the EC50 in the assay with human Nectin-4 [1] was determined as 75 µg/mL. Further, the “Endocytosis efficiency (%)” value with human Nectin-4 [2] was determined as 56%. Further, in the assay with human Nectin-4 [3], the “EC50 (ng/ml), inhibition of proliferation of BT474 cells” value turned out to be 16.9 ng/mL and the “Percentage of cell killing at the highest concentration” value came out at 52.8%.

B2: murine antibody 5M21 (antibody, V domains shown)
VH: QVQLQQSGPELVKPGASVRITCKASGYTFTTYYIHWVKQRPGQGLEWIGWIYPGNVNTKYNEKFKGKATLTADKSSSTAYMQLSSLTSEDSAVYFCARGLYYFDYWGQGTTLTVSS
VL: SIVMTQTPKFLLVSAGDRLTITCKASQSVSNDVAWYQQKPGQSPKLLIYYASNRYTGVPDRFTGSGYGTDFTFTISTVQAEDLAVYFCQQDYSSPYTFGGGTKLEIK
notes: Murine monoclonal antibody from hybridoma; also called mIgG 5M21
In turn, B2 gave an EC50 with human Nectin-4 [1] of 25.4 µg/mL. Also, in the assay with human Nectin-4 [2], the “Endocytosis efficiency (%)” value is 69%. In addition, in the assay with human Nectin-4 [3], the “EC50 (ng/ml), inhibition of proliferation of BT474 cells” value is 42.3 ng/mL and the “Percentage of cell killing at the highest concentration” value came out at 33.5%.

B3: murine antibody 20M12 (antibody, V domains shown)
VH: B2 VH with T21S, T31S, V56A, T58N, K63N, G99S, L100V
VL: B2 VL with I2V, L19V, Y55N, T74N
notes: Murine monoclonal antibody from hybridoma; also called mIgG 20M12
In the assay with human Nectin-4 [4], B3 had an EC50 of 83.8 µg/mL.

B4: 42D20 hz63 (antibody, V domains shown)
VH: QVQLQESGPGLVKPSETLSLTCTVSGFSLIDYGVSWIRQPPGKGLEWIGVIWGGGKIYYNSVLKSRVTISKDNSKSQVSLKLSSVTAADTAVYYCAKQGGLLFYAMDYWGQGTLVTVSS
VL: DIVMTQSPDSLAVSLGERATINCKSSQSLLNTYSQKNYLAWYQQKPGQSPKLLIYFASTRESGVPDRFSGSGSETDFTLTISSLQAEDLAVYFCQQHYNTPFTFGAGTKLELKR
notes: Humanized
With B4, the EC50 in assay [5] was 4.7 µg/mL; with Cyno Nectin4 it was 2.45 to 4.06 µg/mL; in the assay with human Nectin-4 [6], 0.946 µg/mL. In addition, in the assay with His-tagged human NECTIN4, binding was characterised by a dissociation constant (Kd) of 1.8 nM. Moreover, the “EC50 (read off the curve)” value in assay [7] was roughly 0.1 µg/mL. Further, the binding result in assay [8] was “no binding (tested: about 2.5 µg/ml (last point))”; in assay [9], “no binding (tested: 10 µg/ml)”.
